Key:
[1] = target: dog (Canis lupus) PDL1 (dPDL1) expressed on CHO-S cells (CHO-S-dPDL1) (dog (Canis lupus)); experiment: flow cytometry on CHO-S-dPDL1 cells, secondary antibody only; 1 µg/mL
[2] = target: monkey (Macaca fascicularis) PDL1 (fasPDL1) expressed on CHO-S cells (CHO-S-fasPDL1) (monkey (Macaca fascicularis)); experiment: flow cytometry on CHO-S-fasPDL1 cells, secondary antibody only; 0.1 µg/mL
[3] = target: dog (Canis lupus) PDL1 (dPDL1) expressed on CHO-S cells (CHO-S-dPDL1) (dog (Canis lupus)); experiment: flow cytometry on CHO-S-dPDL1 cells, secondary antibody only; 0.1 µg/mL
[4] = target: mouse (Mus musculu) PDL1 (mPDL1) expressed on CHO-S cells (CHO-S-mPDL1) (mouse) (UniProt Q9EP73); experiment: flow cytometry on CHO-S-mPDL1 cells, secondary antibody only; 0.1 µg/mL
[5] = target: monkey (Macaca fascicularis) PDL1 (fasPDL1) expressed on CHO-S cells (CHO-S-fasPDL1) (monkey (Macaca fascicularis)); experiment: flow cytometry on CHO-S-fasPDL1 cells, secondary antibody only; 1 µg/mL
[6] = target: human PDL1 (hPDL1) expressed on CHO-S cells (CHO-S-hPDL1) (human) (UniProt Q9NZQ7); experiment: flow cytometry on CHO-S-hPDL1 cells, secondary antibody only; 0.1 µg/mL
[7] = target: mouse (Mus musculu) PDL1 (mPDL1) expressed on CHO-S cells (CHO-S-mPDL1) (mouse) (UniProt Q9EP73); experiment: flow cytometry on CHO-S-mPDL1 cells, secondary antibody only; 1 µg/mL
[8] = target: human PDL1 (hPDL1) expressed on CHO-S cells (CHO-S-hPDL1) (human) (UniProt Q9NZQ7); experiment: flow cytometry on CHO-S-hPDL1 cells, secondary antibody only; 1 µg/mL
[9] = target: monkey (Macaca fascicularis) PDL1 (fasPDL1) expressed on CHO-S cells (CHO-S-fasPDL1) (monkey (Macaca fascicularis)); experiment: flow cytometry on CHO-S-fasPDL1 cells; antibody 0.1 µg/mL
[10] = target: monkey (Macaca fascicularis) PDL1 (fasPDL1) expressed on CHO-S cells (CHO-S-fasPDL1) (monkey (Macaca fascicularis)); experiment: flow cytometry on CHO-S-fasPDL1 cells; antibody 1 µg/mL
[11] = target: human PDL1 (hPDL1) expressed on CHO-S cells (CHO-S-hPDL1) (human) (UniProt Q9NZQ7); experiment: flow cytometry on CHO-S-hPDL1 cells; antibody 0.1 µg/mL
[12] = target: mouse (Mus musculu) PDL1 (mPDL1) expressed on CHO-S cells (CHO-S-mPDL1) (mouse) (UniProt Q9EP73); experiment: flow cytometry on CHO-S-mPDL1 cells; antibody 1 µg/mL
[13] = target: dog (Canis lupus) PDL1 (dPDL1) expressed on CHO-S cells (CHO-S-dPDL1) (dog (Canis lupus)); experiment: flow cytometry on CHO-S-dPDL1 cells; antibody 0.1 µg/mL
[14] = target: dog (Canis lupus) PDL1 (dPDL1) expressed on CHO-S cells (CHO-S-dPDL1) (dog (Canis lupus)); experiment: flow cytometry on CHO-S-dPDL1 cells; antibody 1 µg/mL
[15] = target: mouse (Mus musculu) PDL1 (mPDL1) expressed on CHO-S cells (CHO-S-mPDL1) (mouse) (UniProt Q9EP73); experiment: flow cytometry on CHO-S-mPDL1 cells; antibody 0.1 µg/mL
[16] = target: human PDL1 (hPDL1) expressed on CHO-S cells (CHO-S-hPDL1) (human) (UniProt Q9NZQ7); experiment: flow cytometry on CHO-S-hPDL1 cells; antibody 1 µg/mL

monkey (Macaca fascicularis) PDL1 (fasPDL1) expressed on CHO-S cells (CHO-S-fasPDL1) (monkey (Macaca fascicularis)), sequence (Q9NZQ7 other isoform, or with tags, fused parts or gaps limits assumed): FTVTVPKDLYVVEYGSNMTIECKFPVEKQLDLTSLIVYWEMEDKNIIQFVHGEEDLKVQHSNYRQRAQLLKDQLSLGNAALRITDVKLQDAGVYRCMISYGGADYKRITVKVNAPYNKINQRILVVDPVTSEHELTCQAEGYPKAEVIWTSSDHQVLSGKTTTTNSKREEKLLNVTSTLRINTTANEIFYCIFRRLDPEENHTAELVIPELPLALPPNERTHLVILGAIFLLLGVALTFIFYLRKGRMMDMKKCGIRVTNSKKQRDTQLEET
dog (Canis lupus) PDL1 (dPDL1) expressed on CHO-S cells (CHO-S-dPDL1) (dog (Canis lupus)), sequence (chain, as listed by the source limits assumed, form in doubt): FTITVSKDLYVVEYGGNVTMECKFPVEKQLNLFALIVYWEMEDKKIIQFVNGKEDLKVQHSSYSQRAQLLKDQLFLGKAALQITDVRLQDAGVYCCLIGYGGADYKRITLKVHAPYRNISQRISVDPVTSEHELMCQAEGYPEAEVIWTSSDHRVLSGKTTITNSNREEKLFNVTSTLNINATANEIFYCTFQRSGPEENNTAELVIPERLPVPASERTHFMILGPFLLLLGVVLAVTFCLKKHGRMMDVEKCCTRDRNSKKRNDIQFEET
human PDL1 (hPDL1) expressed on CHO-S cells (CHO-S-hPDL1) (human), sequence (Q9NZQ7 19-290 limits assumed): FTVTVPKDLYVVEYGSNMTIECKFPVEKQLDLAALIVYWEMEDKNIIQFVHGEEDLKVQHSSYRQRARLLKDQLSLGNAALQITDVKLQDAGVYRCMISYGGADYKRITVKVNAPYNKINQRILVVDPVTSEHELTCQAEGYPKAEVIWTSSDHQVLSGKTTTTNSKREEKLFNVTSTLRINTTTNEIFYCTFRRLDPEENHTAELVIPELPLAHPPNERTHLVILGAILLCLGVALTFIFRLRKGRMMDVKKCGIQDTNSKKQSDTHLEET
mouse (Mus musculu) PDL1 (mPDL1) expressed on CHO-S cells (CHO-S-mPDL1) (mouse), sequence (Q9EP73 19-290 limits assumed): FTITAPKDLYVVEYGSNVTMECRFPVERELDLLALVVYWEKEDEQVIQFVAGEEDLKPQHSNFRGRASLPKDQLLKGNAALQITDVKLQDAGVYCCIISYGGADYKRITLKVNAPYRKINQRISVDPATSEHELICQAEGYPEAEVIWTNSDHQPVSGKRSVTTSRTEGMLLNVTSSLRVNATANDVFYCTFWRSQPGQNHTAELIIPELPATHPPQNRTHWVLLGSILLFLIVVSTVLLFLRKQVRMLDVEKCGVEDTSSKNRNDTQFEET

Substance | Percentage of Positive Cells (%) [1] [%] | Percentage of Positive Cells (%) [2] [%] | Percentage of Positive Cells (%) [3] [%] | Percentage of Positive Cells (%) [4] [%] | Percentage of Positive Cells (%) [5] [%] | Percentage of Positive Cells (%) [6] [%] | Percentage of Positive Cells (%) [7] [%] | Percentage of Positive Cells (%) [8] [%] | Percentage of Positive Cells (%) [9] [%] | Percentage of Positive Cells (%) [10] [%] | Percentage of Positive Cells (%) [11] [%] | Percentage of Positive Cells (%) [12] [%] | Percentage of Positive Cells (%) [13] [%] | Percentage of Positive Cells (%) [14] [%] | Percentage of Positive Cells (%) [15] [%] | Percentage of Positive Cells (%) [16] [%]
secondary antibody anti-hIgG-Fc-Alex Flour 647 (RL1-H) (Jackson ImmunoResearch Laboratories, Inc., 109-606-170) | 1.76 | 1.38 | 1.68 | 1.04 | 2.34 | 1.48 | 2.31 | 1.13 |  |  |  |  |  |  |  | 
ISO (isotype control, antibody with the same IgG1 subtype but targeting an unrelated target) |  |  |  |  |  |  |  |  | 1.87 | 2.53 | 2.01 | 3.52 | 14.2 | 4.28 | 2.26 | 3.05

Reference: patent US20260193356A1
